One sequence from PMC9728176 can be followed below.

For the data set, the target named is T1, His6-Fur (Escherichia coli) (UniProt P0A9A9).
T1 sequence: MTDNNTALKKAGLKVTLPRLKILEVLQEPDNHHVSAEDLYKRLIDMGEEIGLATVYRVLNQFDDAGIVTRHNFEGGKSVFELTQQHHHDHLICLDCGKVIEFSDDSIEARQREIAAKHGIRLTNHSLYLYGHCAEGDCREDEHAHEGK
Briefly: EMSA. To be noted: EMSA: 10 mM Tris-HCl pH 7.5, 50 mM KCl, 0.5 mM DTT, 0.05 mg/ml BSA, 4% glycerin, 1 mM MgCl2, 0.1 mM MnCl2, 50 ug/ml poly(dI-dC), 10 ng probe, temperature not …. In general terms: Mobility shift assays separate free from complexed probe on a gel.

In the case of “GCGATATCACCGGTATAAGGGGCCAGCAGTTCCGCAGGGTCGAACTCTGCCAGATCTGCCAGCGCAACGAAGTTTTGCACCACCTGAATATCGCCCTGCACTTCCAGCTCACCACTGCGAATCAGTGCGGTAAGCTGCTGGCGATCGCGAAGTTTCGGCAACACACTGGCGTAGGCGATAACGGTGCA (double strand) [Biotin-PesrE (Biotin-S1V3)]”, the binding result was “binds”.
